Laboratory results published in the supplement of paper PMC10567573.

B1: TRIB1 (parent)
chain: SYVRSRKRLREEEAARLFKQIVSA

Variants of: B1
Assay: protein stability index of a GFP-peptide fusion (GPS, HEK-293T) (PSI 1-6); higher = more stable
Details: c terminus: a fixed tail appended
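Note: lentivirally expressed fusions sorted by FACS into six bins by GFP to DsRed ratio, PSI derived from sequencing read proportions per bin multiplied by bin number.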

Protein stability index, by site and new letter:
S1: K 2.98 | P 2.1 | A 2.07 | Y 1.41 | V 1.65 | M 1.82 | F 1.45 | E 1.5
V3: F 2.64 | E 1.83 | A 1.68 | K 1.99 | T 2.12 | C 1.71 | W 1.61 | Y 1.98 | N 2.08 | G 1.3 | R 2.63 | D 2.05 | M 1.58 | S 2.36 | H 1.22
A15: F 1.59 | K 1.96 | G 2.56 | E 2.56 | T 2.08 | Y 1.71 | V 1.84 | L 2.05 | S 2.36 | I 1.4 | H 2.08 | C 1.93 | R 2.62 | W 1.74 | M 2.68 | Q 2.15
E12: P 2.03 | Q 1.98 | D 1.9 | T 2.03 | K 2.27 | A 2.16 | M 2.48 | V 1.33 | N 2.61 | H 3.01 | I 2.65 | L 2
R10: E 2.27 | D 2.28 | F 2.04 | P 2.28 | S 2.34 | I 1.83 | C 1.5 | K 3.08 | G 3.19 | V 1.69 | N 2.54 | M 1.35 | L 2.23 | A 2.94 | Y 1.95
K19: I 2.91 | S 2.31 | C 2.34 | N 1.7 | Y 2.02 | H 1.69 | E 2.06 | M 2.43 | L 1.33 | Q 2.21 | F 2.71 | D 2.25
E13: F 2.37 | R 2.85 | D 1.73 | A 1.27 | T 1.74 | M 2.21 | P 2.41 | H 2.47 | C 2.05 | L 2.54 | N 2.53 | V 1.65 | I 2.52
Y2: F 1.54 | S 1.9 | V 2.33 | W 1.25 | R 2.17 | M 2.91 | G 1.83 | K 2.14 | Q 2.48 | H 2.58 | N 2.83 | T 2.38
L17: W 2.24 | T 2.87 | S 2.62 | Y 2.61 | Q 2.1 | M 2.03 | R 2.1 | N 3.21 | D 3.46 | K 2.61 | A 2.49 | E 3.46 | H 2.48 | F 1.6 | P 3.97
V22: P 3.72 | T 2.94 | F 1.83 | M 2.45 | H 2.23 | Q 3.34 | W 3.04 | Y 1.49 | G 3.11 | R 3.3 | C 2.13 | N 2.86
S23: W 1.07 | A 2.01 | I 1.48 | R 1.99 | Q 1.94 | L 2.18 | Y 1.73 | C 1.63 | F 2.07 | H 1.8 | N 2.32 | E 2.56 | P 2.99 | K 2.3 | G 1.9 | M 2.87 | D 3.05
L9: F 1.68 | W 2.56 | R 2.07 | P 1.86 | D 2.47 | K 2.25 | M 3.22 | V 1.75 | T 2.24 | Y 2 | A 1.91 | S 2.44 | Q 2.3 | H 2.24 | C 1.5
A14: W 2.11 | H 2.26 | Q 2.99 | E 2.85 | N 1.89 | C 2.24 | T 2.83 | L 2.03 | S 3.24 | G 3.38 | M 1.81 | K 2.64 | P 2.56 | I 2.4 | D 1.59
K7: Q 2.02 | E 2.5 | F 2.12 | T 2.52 | H 1.58 | G 2.99 | W 1.62 | I 1.86 | D 3.05 | A 2.06 | C 2.34 | N 2.15 | R 2.11 | P 2.03
R16: L 1.93 | K 2.31 | D 2.17 | P 3.39 | Y 2.32 | F 2.66 | M 2.52 | S 1.72 | H 2.2 | V 2.53 | G 2.41 | T 2.57 | A 1.9 | N 2.58 | Q 2.63 | I 1.37 | C 2.01
E11: R 1.54 | S 2.69 | I 1.4 | M 1.66 | H 2.41 | W 2.05 | G 1.33 | F 3.54 | V 1.75 | Y 1.22 | D 2.17 | K 2.25 | N 2.13 | Q 1.9 | T 2.44
R6: Q 1.88 | N 1.81 | S 2.21 | V 1.95 | P 2.66 | D 2.99 | C 1.85 | K 2.63 | A 1.89 | T 2.07 | G 1.72 | W 1.97 | F 1.42 | I 2
Q20: R 1.95 | W 1.46 | F 1.61 | M 2.17 | S 2.27 | A 1.8 | C 1.43 | V 1.04 | G 2.52 | Y 1.13 | N 2.64 | T 2.37 | I 1.43 | K 2.15 | P 3.03 | L 1.32 | D 2.08
R8: H 1.96 | Q 2.38 | A 2.3 | D 1.78 | L 2.03 | S 1.99 | E 3.2 | N 2.6 | K 2.49 | F 1.48 | P 2.09 | C 2.05 | M 1.58
S5: E 1.39 | P 2.27 | A 1.76 | H 1.94 | N 2.12 | M 1.92 | K 2.31 | C 1.62 | I 1.73 | Y 2.65 | D 2.24 | F 2.4
R4: L 2.35 | V 2.28 | M 2.12 | D 2.44 | T 1.8 | W 1.29 | Q 2.09 | A 1.41 | E 2.76 | I 1.57 | S 1.87 | H 2.56
I21: F 2.2 | V 2.34 | E 3.23 | M 2.47 | Y 2.06 | P 3.76 | L 1.39 | R 3.8 | Q 2.06 | S 3.66 | H 2.4 | W 3.98 | D 4.08 | N 4.01 | T 3.48 | K 3.27
F18: T 3.84 | Y 2.08 | V 2.86 | H 4.19 | N 3.1 | R 3.74 | S 3.42 | D 3.83 | I 2.06 | G 3.92 | P 3.99 | A 3.44 | L 1.52 | W 2.56
A24: V 2.61 | K 2.97 | R 2.01 | L 1.65 | H 2.58 | S 2.08 | M 1.14 | D 2.76 | Y 2.32 | T 2.47 | P 2.63 | Q 2.18 | E 1.99
